Results as given in the Human Domainome abundance scans (Beltran et al. 2025).

B1: PMS1 protein homolog 1, residues 572 to 637; numbered along this chain, P54277 (parent)
chain: KKPMSASALFVQDHRPQFLIENPKTSLEDATLQIEELWKTLSEEEKLKYEEKATKDLERYNSQMKR

Variants of: B1
Assay: abundance fitness (aPCA) (normalised: wild type 0, dead -1); higher = more abundant; growth selection in yeast, the domain comes from the species named
Conditions: Homo sapiens

Abundance fitness of substitutions, site by site:
K48: W -0.187; H -0.426; G -0.28; L -0.081; S -0.135; I -0.309; P -0.09; Q -0.178; N -0.375; M -0.115; A -0.095; C 0.041; Y -0.078; E -0.202; V -0.008; T -0.205; R -0.127; F -0.121
L41: K -0.317; W -0.617; N -0.501; S -0.069; T -0.007; V -0.023; P -0.622; M -0.145; R -0.202; Y -0.59; Q -0.052
L47: V 0.055; T 0.005; R -0.091; F -0.085; W -0.141; E -0.184; A 0.058; C -0.149; N 0.202; D -0.157; M 0.017; K -0.235; P -0.975; S -0.039; H 0.032
S42: K -0.072; C -0.28; G -0.165; L -0.801; A -0.085; E -0.101; V -0.56; R -0.24; Q -0.322; D -0.045; P -0.065; M -0.813; Y -1.21; N -0.135; W -1.34; T -0.078
K52: D -0.357; C -0.076; A -0.101
E45: T -0.214; K -0.244; D -0.133; I -0.085; W -0.78; M -0.21; C -0.327; L -0.262; V -0.169; F -0.606; Q -0.142; S -0.198; H -0.123; Y -0.787; A -0.258; R -0.187; N -0.476; P -0.811
E51: H -0.131; V -0.088; Y -0.513; K -0.156; L -0.048; F -0.224; A -0.088; M -0.132; Q -0.043; N -0.062; D -0.072; S -0.158; G -0.237; R -0.048; I -0.127; W -0.286; C -0.215; T -0.057
Y49: T -0.614; N -0.717; Q -0.496; P -0.581; H -0.616; R -0.516; E -0.819; K -0.583; G -0.761; V -0.847; M -0.966; S -0.676; D -0.634; A -0.507; L -0.92; W -0.013; C -0.621
K46: N -1.37; F -1.21; M -0.508; V -0.431; T -0.432; E -1.08; A -0.395; W -1.17; H -0.353; Q -0.106; S -0.641; C -0.569; G -0.84; L -0.685; D -0.848; R -0.058
E44: S -0.05; Q -0.142; C -0.155; H -0.071; D -0.081; T -0.135; W -0.433; F -0.284; V -0.113; N -0.385; M -0.408; G -0.064; A -0.077; R -0.124; Y -0.317; I -0.345
E43: H -0.087; Y -0.095; W -0.046; S 0; I -0.133; D 0.029; T 0.032; F -0.234; R -0.025; L -0.06; A 0.004; G -0.09; K -0.236; C -0.102; N 0.046; M -0.039; Q 0.007; P -0.086; V -0.026
